Literature values, collected in article PMC5413910.

Target: linear (Met1-linked) diubiquitin (Homo sapiens) (UniProt P0CG48)

Chain of OTULIN (Q96BN8 whole entry): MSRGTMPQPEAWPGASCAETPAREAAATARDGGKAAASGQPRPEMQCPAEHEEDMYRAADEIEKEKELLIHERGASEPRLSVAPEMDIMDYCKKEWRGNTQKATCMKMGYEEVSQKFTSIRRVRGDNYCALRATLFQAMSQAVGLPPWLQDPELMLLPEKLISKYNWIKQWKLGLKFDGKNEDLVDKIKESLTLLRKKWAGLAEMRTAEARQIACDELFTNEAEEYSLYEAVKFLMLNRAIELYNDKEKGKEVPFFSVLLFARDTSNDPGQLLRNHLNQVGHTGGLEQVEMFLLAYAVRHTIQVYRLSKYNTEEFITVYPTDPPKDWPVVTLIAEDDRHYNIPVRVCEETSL

Kd: 150 nM
Substance: OTULIN (from UniProt Q96BN8)
